± gives the uncertainty stated by the source.
Assay: self-splicing fitness, log relative to wild type (ln ratio); higher = more splicing; Tetrahymena group I intron in knt gene, E. coli kanamycin selection, DiMSum; sequences stand for … in CUCUCU…GGAGGGAAAAGUUAUCAGGCAUGCACCUGGUAGCUAGUCUUUAAACCAAUAGAUUGCAUCGGUUUAAAAGGCAAGACCGUCAAAUUGCGGGAAAGGGGUCAACAGCCGUUCAGUACCAAGUCUCAGGGGAAACUUUGAGAUGGCCUUGCAAAGGGUAUGGUAAUAAGCUGACGGACAUGGUCCUAACCACGCAGCCAAGUCCUAAGUCAACAGAUCUUCUGUUGAUAUGGAUGCAGUUCACAGACUAAAUGUCGGUCGGGGAAGAUGUAUUCUUCUCAUAAGAUAUAGUCGGACCUCUCCUUAAUGGGAGCUAGCGGAUGAAGUGAUGCAACACUGGAGCCGCUGGGAACUAAUUUGUAUGCGAAAGUAUAUUGAUUAGUUUUGGAGUACUCGUGGUCG
In short: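 Pooled colonies went to amplicon sequencing on an Illumina HiSeq 2500 after six replicate transformations. The plates were LB agar with 100 μg/mL carbenicillin, 50 μM IPTG and 0.2% rhamnose, with or without 25 μg/mL kanamycin, incubated overnight at 37°C or 30°C. The E. coli BL21(DE3) library had all eight P1ex-region intron nucleotides randomised, the intron placed in the knt kanamycin-resistance gene on pET-22b(+). DiMSum fitness is the error-weighted combination of replicate fold changes, kanamycin against none, normalised to wild type.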

| Sequence | self-splicing fitness (ln) (30 °C) | self-splicing fitness (ln) (37 °C) |
| --- | --- | --- |
| CUAAAGCAAUAUUACGUGCC | -4.57 ± 0.29 | -2.25 ± 0.18 |
| UGGAAGCAAUAUUACGUAAG | -1.07 ± 0.12 | -0.81 ± 0.13 |
| UUCAAGCAAUAUUACGUUUG | -3.95 ± 0.34 | -2.31 ± 0.28 |
| UGAAAGCAAUAUUACGGAUC | -3.19 ± 0.24 | -2.83 ± 0.33 |
| UGUCAGCAAUAUUACGGUAG | -0.675 ± 0.07 | -0.235 ± 0.091 |
| UAUGAGCAAUAUUACGCUGU | -3.79 ± 0.25 | -3.21 ± 0.24 |
| GCUGAGCAAUAUUACGUUUC | -1.94 ± 0.18 | -1.55 ± 0.2 |
| CACUAGCAAUAUUACGAGCG | -0.458 ± 0.083 | 0.257 ± 0.086 |
| CUUUAGCAAUAUUACGAACU | -3.28 ± 0.24 | -2.54 ± 0.19 |
| CGUGAGCAAUAUUACGGACG | -2.08 ± 0.22 | -1.31 ± 0.38 |
| CUUGAGCAAUAUUACGGGCA | -3.94 ± 0.35 | -1.91 ± 0.21 |
| UGUUAGCAAUAUUACGUCGC | -3.73 ± 0.18 | -2.23 ± 0.18 |
| GACUAGCAAUAUUACGACGA | -0.416 ± 0.074 | 0.00653 ± 0.078 |
| ACAGAGCAAUAUUACGCCUA | -1.68 ± 0.23 | -1.93 ± 0.22 |
| AUUCAGCAAUAUUACGACGU | -0.0483 ± 0.06 | 0.146 ± 0.068 |
| GUCAAGCAAUAUUACGAUUU | -0.962 ± 0.08 | -1.42 ± 0.11 |
| ACUUAGCAAUAUUACGCACG | -1.55 ± 0.1 | -0.683 ± 0.13 |
| UCCUAGCAAUAUUACGUUCU | -3.14 ± 0.14 | -2.51 ± 0.13 |
| ACUUAGCAAUAUUACGCAUC | -2.69 ± 0.19 | -1.64 ± 0.2 |
| CAUGAGCAAUAUUACGGAUU | -3.76 ± 0.21 | -2.52 ± 0.26 |
| GCUUAGCAAUAUUACGGGGA | -1.05 ± 0.11 | -0.712 ± 0.12 |
| ACUAAGCAAUAUUACGGAGU | -3.72 ± 0.23 | -3.11 ± 0.21 |
| AGCGAGCAAUAUUACGGGGG | -2.6 ± 0.33 | -2.04 ± 0.41 |
| UUAAAGCAAUAUUACGACAA | 0.44 ± 0.091 | 0.336 ± 0.11 |
| CACAAGCAAUAUUACGACAU | -3.32 ± 0.017 | -1.99 ± 0.033 |

| Sequence | self-splicing fitness (ln) (30 °C) | self-splicing fitness (ln) (37 °C) |
| --- | --- | --- |
| GGUGAGCAAUAUUACGGACA | -1.48 ± 0.17 | -0.688 ± 0.16 |
| UUCAAGCAAUAUUACGAUCG | -1.26 ± 0.1 | -2.3 ± 0.2 |
| GAGUAGCAAUAUUACGCCUG | -1.23 ± 0.13 | -0.972 ± 0.15 |
| CUUAAGCAAUAUUACGGUUG | -1.95 ± 0.14 | -1.3 ± 0.14 |
| GUCCAGCAAUAUUACGAAGA | -0.611 ± 0.19 | -1.51 ± 0.24 |
| AAAUAGCAAUAUUACGCUGG | -1.94 ± 0.13 | -1.15 ± 0.17 |
| AAUUAGCAAUAUUACGACUA | 0.0301 ± 0.1 | 0.169 ± 0.099 |
| UGACAGCAAUAUUACGAUGG | -1.5 ± 0.084 | 0.221 ± 0.12 |
| GGAGAGCAAUAUUACGUCGA | -2.7 ± 0.32 | -1.53 ± 0.26 |
| AACUAGCAAUAUUACGGGAC | -3.22 ± 0.3 | -1.08 ± 0.17 |
| GUUGAGCAAUAUUACGUAUA | -2.17 ± 0.29 |  |
| CUUGAGCAAUAUUACGGUAA |  | -2.99 ± 0.47 |
| CAUUAGCAAUAUUACGGCGC | -2.01 ± 0.3 | -0.0545 ± 0.24 |
| GGCGAGCAAUAUUACGGGGG | -3.33 ± 0.2 | -2.64 ± 0.28 |
| GUGGAGCAAUAUUACGACUC | -3.19 ± 0.45 | -1.47 ± 0.44 |
| AAGUAGCAAUAUUACGGACU | -0.577 ± 0.11 | -0.212 ± 0.15 |
| AAUUAGCAAUAUUACGAAGA | -1.25 ± 0.17 | -0.985 ± 0.16 |
| AUAAAGCAAUAUUACGACGG | -1.66 ± 0.096 | -0.375 ± 0.12 |
| CCGAAGCAAUAUUACGGUGA |  | -3.25 ± 0.43 |
| CGGUAGCAAUAUUACGUGCG | -1.41 ± 0.12 | -0.87 ± 0.12 |
| UUAGAGCAAUAUUACGUUAC |  | -2.17 ± 0.46 |
| AAGAAGCAAUAUUACGAUUC | -1.49 ± 0.1 | -0.941 ± 0.14 |
| AAAAAGCAAUAUUACGACAA | -0.322 ± 0.1 | 0.331 ± 0.12 |
| UCUUAGCAAUAUUACGAAAG | -2.07 ± 0.35 | -1.12 ± 0.34 |
| CAUGAGCAAUAUUACGGUAA |  | -2.65 ± 0.34 |

| Sequence | self-splicing fitness (ln) (30 °C) | self-splicing fitness (ln) (37 °C) |
| --- | --- | --- |
| AAAUAGCAAUAUUACGAGGC | -3.64 ± 0.47 |  |
| UUUUAGCAAUAUUACGGCUA | -2.21 ± 0.44 | -0.365 ± 0.31 |
| AAUAAGCAAUAUUACGUUAG | -4.52 ± 0.19 | -2.69 ± 0.17 |
| GACAAGCAAUAUUACGUCUA | -2.01 ± 0.079 | -1.04 ± 0.082 |
| GAGUAGCAAUAUUACGCAUG | -0.973 ± 0.29 | -0.606 ± 0.47 |
| AAUAAGCAAUAUUACGUAUG | -2.2 ± 0.11 | -0.966 ± 0.12 |
| AGUAAGCAAUAUUACGGGCC | -1.48 ± 0.2 | -0.26 ± 0.15 |
| AUUUAGCAAUAUUACGUGUC | -2.55 ± 0.42 | -2.87 ± 0.43 |
| UUCCAGCAAUAUUACGUCGC | -1.69 ± 0.32 | -1.23 ± 0.45 |
| AGCGAGCAAUAUUACGGAAG | -4.34 ± 0.42 | -2.68 ± 0.29 |
| UCGGAGCAAUAUUACGGGGA | -1.76 ± 0.2 | -1.13 ± 0.19 |
| CUGAAGCAAUAUUACGUCCU | -3.45 ± 0.23 | -2.39 ± 0.23 |
| UGACAGCAAUAUUACGGGGC | -2.96 ± 0.13 | -2.56 ± 0.12 |
| ACGAAGCAAUAUUACGUGGC | -2.97 ± 0.11 | -2.04 ± 0.14 |
| CAUAAGCAAUAUUACGACAU | -3.64 ± 0.024 | -2.45 ± 0.037 |
| UCAUAGCAAUAUUACGCCCG | -0.515 ± 0.21 | -0.292 ± 0.3 |
| CCUUAGCAAUAUUACGAUAC | -1.67 ± 0.44 |  |
| UGUCAGCAAUAUUACGACUU | -1.14 ± 0.1 | 0.303 ± 0.16 |
| GGACAGCAAUAUUACGCUAC | -4.74 ± 0.27 | -2.33 ± 0.24 |
| UUGUAGCAAUAUUACGAUAG | -1.52 ± 0.2 | -1.16 ± 0.17 |
| CGUAAGCAAUAUUACGACGU | -2.15 ± 0.15 | -0.981 ± 0.15 |
| UUUAAGCAAUAUUACGGCAC | -2 ± 0.27 | -1.87 ± 0.23 |
| UAUCAGCAAUAUUACGCUGC | -2.59 ± 0.35 | -0.822 ± 0.24 |
| AAGUAGCAAUAUUACGUCGU | -0.969 ± 0.093 | -0.724 ± 0.11 |
| UUCCAGCAAUAUUACGGCAA | -0.0711 ± 0.1 | 0.362 ± 0.12 |

| Sequence | self-splicing fitness (ln) (30 °C) | self-splicing fitness (ln) (37 °C) |
| --- | --- | --- |
| UGGGAGCAAUAUUACGCAUC | -3 ± 0.32 | -2.58 ± 0.38 |
| UAAUAGCAAUAUUACGCCAA |  | -2.37 ± 0.26 |
| GAAGAGCAAUAUUACGAUAG | -3.04 ± 0.24 | -2.14 ± 0.29 |
| UGGUAGCAAUAUUACGGGUC | -3.15 ± 0.4 | -2.9 ± 0.47 |
| GGACAGCAAUAUUACGGAGG | -3.52 ± 0.15 | -0.672 ± 0.096 |
| UCUAAGCAAUAUUACGUGAA | -1.68 ± 0.088 | -0.923 ± 0.099 |
| AAAAAGCAAUAUUACGCAUC | -2.24 ± 0.13 | -1.34 ± 0.15 |
| UUGCAGCAAUAUUACGUUCG | -1.16 ± 0.049 | -0.636 ± 0.071 |
| GAUCAGCAAUAUUACGCGAA | -1.49 ± 0.086 | -0.586 ± 0.09 |
| CUCGAGCAAUAUUACGUGAA | -2.47 ± 0.21 | -2.93 ± 0.47 |
| AAUGAGCAAUAUUACGAUGA | -2.16 ± 0.12 | -1.77 ± 0.15 |
| UGUGAGCAAUAUUACGAACA | -0.691 ± 0.42 | -0.543 ± 0.45 |
| GCCCAGCAAUAUUACGAUGC | -0.328 ± 0.055 | 0.257 ± 0.076 |
| UUCCAGCAAUAUUACGGGGG | -3.3 ± 0.15 | -1.57 ± 0.14 |
| CCAAAGCAAUAUUACGCGCU | -3.57 ± 0.15 | -3.13 ± 0.17 |
| GACAAGCAAUAUUACGAGCU | -1.28 ± 0.08 | -0.288 ± 0.11 |
| CUGAAGCAAUAUUACGGCCU | -4.04 ± 0.26 | -2.43 ± 0.33 |
| UAUAAGCAAUAUUACGGCAA | -0.395 ± 0.17 | -0.0869 ± 0.2 |
| CGGCAGCAAUAUUACGUACG | -3.05 ± 0.17 | -1.31 ± 0.16 |
| AUGGAGCAAUAUUACGGUUC | -3.93 ± 0.42 | -2.56 ± 0.38 |
| GGUCAGCAAUAUUACGGAAG | -2.27 ± 0.2 | -1.58 ± 0.23 |
| GACGAGCAAUAUUACGAGUC | -3.37 ± 0.2 | -2.85 ± 0.31 |

— the supplement of paper PMC7877785
